Source: patent publication US12679878B2, “CRF2 receptor agonists and their use in therapy” (SANOFI, priority 2020, dated 2026)
Starred links: 1 amine or outer side, 2 acyl side, 3 side chain; linkers in the order of their positions; H or OH if unused. Non-standard residues stand in square brackets, D forms with d. Groups on a side chain read outwards from the residue. No end group written: not given here. *: point of attachment. C16 diacid = O=C(O)CCCCCCCCCCCCCCC(=O)*; γGlu = O=C(O)[C@H](CCC(=O)[*:2])N[*:1]; Palmitoyl = CCCCCCCCCCCCCCCC(=O)*; AEEA = NCCOCCOCC(=O)O; Aib = CC(C)(N)C(=O)O

T1: CRF1R receptor (anti-target) (UniProt P34998 24-415, limits assumed)
T1 sequence (looked up): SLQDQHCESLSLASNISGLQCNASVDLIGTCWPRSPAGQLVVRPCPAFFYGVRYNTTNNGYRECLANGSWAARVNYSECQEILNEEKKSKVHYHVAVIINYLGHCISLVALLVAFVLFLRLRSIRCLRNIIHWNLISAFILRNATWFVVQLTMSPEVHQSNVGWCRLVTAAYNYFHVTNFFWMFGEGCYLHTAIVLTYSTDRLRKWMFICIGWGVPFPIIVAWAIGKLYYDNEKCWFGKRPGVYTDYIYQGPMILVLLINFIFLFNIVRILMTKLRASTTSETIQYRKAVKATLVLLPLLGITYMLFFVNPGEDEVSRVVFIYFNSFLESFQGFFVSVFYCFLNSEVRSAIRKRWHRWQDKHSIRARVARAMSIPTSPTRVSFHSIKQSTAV


How the values were obtained:
[1] = molecular target: T1, CRF1R receptor (anti-target); experiment: cell-based or functional assay
[2] = molecular target: human corticotropin-releasing factor 2α (CRF2α receptor) (human), Q13324; experiment: cell-based or functional assay
Chain of human corticotropin-releasing factor 2α (CRF2α receptor) (human), Q13324 (Q13324 20-411): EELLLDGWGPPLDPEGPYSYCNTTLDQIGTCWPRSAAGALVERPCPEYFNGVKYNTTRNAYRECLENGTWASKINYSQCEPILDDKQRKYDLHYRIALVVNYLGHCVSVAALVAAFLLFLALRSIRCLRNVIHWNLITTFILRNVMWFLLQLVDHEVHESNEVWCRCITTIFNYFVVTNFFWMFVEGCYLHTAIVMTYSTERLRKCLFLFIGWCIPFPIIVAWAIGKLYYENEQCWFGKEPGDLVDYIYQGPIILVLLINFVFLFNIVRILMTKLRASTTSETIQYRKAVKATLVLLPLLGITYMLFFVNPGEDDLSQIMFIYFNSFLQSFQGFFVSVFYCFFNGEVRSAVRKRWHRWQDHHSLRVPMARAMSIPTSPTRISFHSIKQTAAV

EC50 [nM] 0% HSA (cAMP, HTRF) [1] [nM] | Emax (%) (100% = Sauvagine at 100 nM) [1] | EC50 [nM], 0% HSA (cAMP, HTRF) [2] [nM] | Binder
> 100 | 1.9 | 8.7 | IVLSLD[dV]PIKLK([AEEA-AEEA-γGlu-C16 diacid])QILLKQERQKK[Aib]RQKAEKNKQILAQV-NH2 (N-terminus assumed; SMILES CC[C@H](C)[C@H](N)C(=O)N[C@H](C(=O)N[C@@H](CC(C)C)C(=O)N[C@@H](CO)C(=O)N[C@@H](CC(C)C)C(=O)N[C@@H](CC(=O)O)C(=O)N[C@@H](C(=O)N1CCC[C@H]1C(=O)N[C@H](C(=O)N[C@@H](CCCCN)C(=O)N[C@@H](CC(C)C)C(=O)N[C@@H](CCCCNC(=O)COCCOCCNC(=O)COCCOCCNC(=O)CC[C@H](NC(=O)CCCCCCCCCCCCCCC(=O)O)C(=O)O)C(=O)N[C@@H](CCC(N)=O)C(=O)N[C@H](C(=O)N[C@@H](CC(C)C)C(=O)N[C@@H](CC(C)C)C(=O)N[C@@H](CCCCN)C(=O)N[C@@H](CCC(N)=O)C(=O)N[C@@H](CCC(=O)O)C(=O)N[C@@H](CCCNC(=N)N)C(=O)N[C@@H](CCC(N)=O)C(=O)N[C@@H](CCCCN)C(=O)N[C@@H](CCCCN)C(=O)NC(C)(C)C(=O)N[C@@H](CCCNC(=N)N)C(=O)N[C@@H](CCC(N)=O)C(=O)N[C@@H](CCCCN)C(=O)N[C@@H](C)C(=O)N[C@@H](CCC(=O)O)C(=O)N[C@@H](CCCCN)C(=O)N[C@@H](CC(N)=O)C(=O)N[C@@H](CCCCN)C(=O)N[C@@H](CCC(N)=O)C(=O)N[C@H](C(=O)N[C@@H](CC(C)C)C(=O)N[C@@H](C)C(=O)N[C@@H](CCC(N)=O)C(=O)N[C@H](C(N)=O)C(C)C)[C@@H](C)CC)[C@@H](C)CC)[C@@H](C)CC)C(C)C)C(C)C) [peptide of SEQ ID NO: 200]
 |  | 0.16 | IVLSLD[dV]PIGLK([AEEA-AEEA-γGlu-γGlu-Palmitoyl])QILLKQERQKK[Aib]REQAETNKQILAQV-NH2 (N-terminus assumed; SMILES CCCCCCCCCCCCCCCC(=O)N[C@@H](CCC(=O)N[C@@H](CCC(=O)NCCOCCOCC(=O)NCCOCCOCC(=O)NCCCC[C@H](NC(=O)[C@H](CC(C)C)NC(=O)CNC(=O)[C@@H](NC(=O)[C@@H]1CCCN1C(=O)[C@H](NC(=O)[C@H](CC(=O)O)NC(=O)[C@H](CC(C)C)NC(=O)[C@H](CO)NC(=O)[C@H](CC(C)C)NC(=O)[C@@H](NC(=O)[C@@H](N)[C@@H](C)CC)C(C)C)C(C)C)[C@@H](C)CC)C(=O)N[C@@H](CCC(N)=O)C(=O)N[C@H](C(=O)N[C@@H](CC(C)C)C(=O)N[C@@H](CC(C)C)C(=O)N[C@@H](CCCCN)C(=O)N[C@@H](CCC(N)=O)C(=O)N[C@@H](CCC(=O)O)C(=O)N[C@@H](CCCNC(=N)N)C(=O)N[C@@H](CCC(N)=O)C(=O)N[C@@H](CCCCN)C(=O)N[C@@H](CCCCN)C(=O)NC(C)(C)C(=O)N[C@@H](CCCNC(=N)N)C(=O)N[C@@H](CCC(=O)O)C(=O)N[C@@H](CCC(N)=O)C(=O)N[C@@H](C)C(=O)N[C@@H](CCC(=O)O)C(=O)N[C@H](C(=O)N[C@@H](CC(N)=O)C(=O)N[C@@H](CCCCN)C(=O)N[C@@H](CCC(N)=O)C(=O)N[C@H](C(=O)N[C@@H](CC(C)C)C(=O)N[C@@H](C)C(=O)N[C@@H](CCC(N)=O)C(=O)N[C@H](C(N)=O)C(C)C)[C@@H](C)CC)[C@@H](C)O)[C@@H](C)CC)C(=O)O)C(=O)O) [peptide of SEQ ID NO: 217]
> 100 | 21.6 | 0.11 | IVLSLD[dV]PIGLK([γGlu-C16 diacid])QILLKQERQKK[Aib]REQAETNKQILAQV-NH2 (N-terminus assumed; SMILES CC[C@H](C)[C@H](N)C(=O)N[C@H](C(=O)N[C@@H](CC(C)C)C(=O)N[C@@H](CO)C(=O)N[C@@H](CC(C)C)C(=O)N[C@@H](CC(=O)O)C(=O)N[C@@H](C(=O)N1CCC[C@H]1C(=O)N[C@H](C(=O)NCC(=O)N[C@@H](CC(C)C)C(=O)N[C@@H](CCCCNC(=O)CC[C@H](NC(=O)CCCCCCCCCCCCCCC(=O)O)C(=O)O)C(=O)N[C@@H](CCC(N)=O)C(=O)N[C@H](C(=O)N[C@@H](CC(C)C)C(=O)N[C@@H](CC(C)C)C(=O)N[C@@H](CCCCN)C(=O)N[C@@H](CCC(N)=O)C(=O)N[C@@H](CCC(=O)O)C(=O)N[C@@H](CCCNC(=N)N)C(=O)N[C@@H](CCC(N)=O)C(=O)N[C@@H](CCCCN)C(=O)N[C@@H](CCCCN)C(=O)NC(C)(C)C(=O)N[C@@H](CCCNC(=N)N)C(=O)N[C@@H](CCC(=O)O)C(=O)N[C@@H](CCC(N)=O)C(=O)N[C@@H](C)C(=O)N[C@@H](CCC(=O)O)C(=O)N[C@H](C(=O)N[C@@H](CC(N)=O)C(=O)N[C@@H](CCCCN)C(=O)N[C@@H](CCC(N)=O)C(=O)N[C@H](C(=O)N[C@@H](CC(C)C)C(=O)N[C@@H](C)C(=O)N[C@@H](CCC(N)=O)C(=O)N[C@H](C(N)=O)C(C)C)[C@@H](C)CC)[C@@H](C)O)[C@@H](C)CC)[C@@H](C)CC)C(C)C)C(C)C) [peptide of SEQ ID NO: 194]
> 100 | 12.5 | 2.68 | IVLSLD[dV]PIKLK([γGlu-C16 diacid])QILLKQERQKKQREKAEKNKQILAQV-NH2 (N-terminus assumed; SMILES CC[C@H](C)[C@H](N)C(=O)N[C@H](C(=O)N[C@@H](CC(C)C)C(=O)N[C@@H](CO)C(=O)N[C@@H](CC(C)C)C(=O)N[C@@H](CC(=O)O)C(=O)N[C@@H](C(=O)N1CCC[C@H]1C(=O)N[C@H](C(=O)N[C@@H](CCCCN)C(=O)N[C@@H](CC(C)C)C(=O)N[C@@H](CCCCNC(=O)CC[C@H](NC(=O)CCCCCCCCCCCCCCC(=O)O)C(=O)O)C(=O)N[C@@H](CCC(N)=O)C(=O)N[C@H](C(=O)N[C@@H](CC(C)C)C(=O)N[C@@H](CC(C)C)C(=O)N[C@@H](CCCCN)C(=O)N[C@@H](CCC(N)=O)C(=O)N[C@@H](CCC(=O)O)C(=O)N[C@@H](CCCNC(=N)N)C(=O)N[C@@H](CCC(N)=O)C(=O)N[C@@H](CCCCN)C(=O)N[C@@H](CCCCN)C(=O)N[C@@H](CCC(N)=O)C(=O)N[C@@H](CCCNC(=N)N)C(=O)N[C@@H](CCC(=O)O)C(=O)N[C@@H](CCCCN)C(=O)N[C@@H](C)C(=O)N[C@@H](CCC(=O)O)C(=O)N[C@@H](CCCCN)C(=O)N[C@@H](CC(N)=O)C(=O)N[C@@H](CCCCN)C(=O)N[C@@H](CCC(N)=O)C(=O)N[C@H](C(=O)N[C@@H](CC(C)C)C(=O)N[C@@H](C)C(=O)N[C@@H](CCC(N)=O)C(=O)N[C@H](C(N)=O)C(C)C)[C@@H](C)CC)[C@@H](C)CC)[C@@H](C)CC)C(C)C)C(C)C) [peptide of SEQ ID NO: 191]
> 100 | -2.9 | 1.39 | IVLSLD[dV]PIKLK([AEEA-AEEA-γGlu-γGlu-C16 diacid])QILLKQERQK[Aib]QREQAEKNKQILAQV-NH2 (N-terminus assumed; SMILES CC[C@H](C)[C@H](N)C(=O)N[C@H](C(=O)N[C@@H](CC(C)C)C(=O)N[C@@H](CO)C(=O)N[C@@H](CC(C)C)C(=O)N[C@@H](CC(=O)O)C(=O)N[C@@H](C(=O)N1CCC[C@H]1C(=O)N[C@H](C(=O)N[C@@H](CCCCN)C(=O)N[C@@H](CC(C)C)C(=O)N[C@@H](CCCCNC(=O)COCCOCCNC(=O)COCCOCCNC(=O)CC[C@H](NC(=O)CC[C@H](NC(=O)CCCCCCCCCCCCCCC(=O)O)C(=O)O)C(=O)O)C(=O)N[C@@H](CCC(N)=O)C(=O)N[C@H](C(=O)N[C@@H](CC(C)C)C(=O)N[C@@H](CC(C)C)C(=O)N[C@@H](CCCCN)C(=O)N[C@@H](CCC(N)=O)C(=O)N[C@@H](CCC(=O)O)C(=O)N[C@@H](CCCNC(=N)N)C(=O)N[C@@H](CCC(N)=O)C(=O)N[C@@H](CCCCN)C(=O)NC(C)(C)C(=O)N[C@@H](CCC(N)=O)C(=O)N[C@@H](CCCNC(=N)N)C(=O)N[C@@H](CCC(=O)O)C(=O)N[C@@H](CCC(N)=O)C(=O)N[C@@H](C)C(=O)N[C@@H](CCC(=O)O)C(=O)N[C@@H](CCCCN)C(=O)N[C@@H](CC(N)=O)C(=O)N[C@@H](CCCCN)C(=O)N[C@@H](CCC(N)=O)C(=O)N[C@H](C(=O)N[C@@H](CC(C)C)C(=O)N[C@@H](C)C(=O)N[C@@H](CCC(N)=O)C(=O)N[C@H](C(N)=O)C(C)C)[C@@H](C)CC)[C@@H](C)CC)[C@@H](C)CC)C(C)C)C(C)C) [peptide of SEQ ID NO: 199]
> 100 | 1.4 | 0.49 | IVLSLD[dV]PIKLK([AEEA-AEEA-γGlu-C16 diacid])QILLKQERQK[Aib]QREQAEKNKQILAQV-NH2 (N-terminus assumed; SMILES CC[C@H](C)[C@H](N)C(=O)N[C@H](C(=O)N[C@@H](CC(C)C)C(=O)N[C@@H](CO)C(=O)N[C@@H](CC(C)C)C(=O)N[C@@H](CC(=O)O)C(=O)N[C@@H](C(=O)N1CCC[C@H]1C(=O)N[C@H](C(=O)N[C@@H](CCCCN)C(=O)N[C@@H](CC(C)C)C(=O)N[C@@H](CCCCNC(=O)COCCOCCNC(=O)COCCOCCNC(=O)CC[C@H](NC(=O)CCCCCCCCCCCCCCC(=O)O)C(=O)O)C(=O)N[C@@H](CCC(N)=O)C(=O)N[C@H](C(=O)N[C@@H](CC(C)C)C(=O)N[C@@H](CC(C)C)C(=O)N[C@@H](CCCCN)C(=O)N[C@@H](CCC(N)=O)C(=O)N[C@@H](CCC(=O)O)C(=O)N[C@@H](CCCNC(=N)N)C(=O)N[C@@H](CCC(N)=O)C(=O)N[C@@H](CCCCN)C(=O)NC(C)(C)C(=O)N[C@@H](CCC(N)=O)C(=O)N[C@@H](CCCNC(=N)N)C(=O)N[C@@H](CCC(=O)O)C(=O)N[C@@H](CCC(N)=O)C(=O)N[C@@H](C)C(=O)N[C@@H](CCC(=O)O)C(=O)N[C@@H](CCCCN)C(=O)N[C@@H](CC(N)=O)C(=O)N[C@@H](CCCCN)C(=O)N[C@@H](CCC(N)=O)C(=O)N[C@H](C(=O)N[C@@H](CC(C)C)C(=O)N[C@@H](C)C(=O)N[C@@H](CCC(N)=O)C(=O)N[C@H](C(N)=O)C(C)C)[C@@H](C)CC)[C@@H](C)CC)[C@@H](C)CC)C(C)C)C(C)C) [peptide of SEQ ID NO: 198]
